# Reference: the supplement of paper PMC9170038
# Test system: K4 kissing-loop RNA reporter
# Experiment: apparent KD of K4 kissing-loop reporter; higher = weaker reporter binding
# Settings: Eterna round: R107
# Protocol: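 RNA-MaP round R107: designed RNA switches with theophylline, tryptophan, arginine or FMN aptamers are transcribed on-chip within common flanks. They are titrated with a labelled K4 kissing-loop RNA reporter in RNA-MaP buffer (100 mM Tris pH 7.5, 80 mM KCl, 4 mM MgCl2), without ligand or with the indicated ligand. Median apparent KD per design.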
# [1] = input ligand: theophylline 20 uM
# [2] = input ligand: tryptophan 2.4 mM
# 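Further: bound reporter read as fluorescence of individual clusters on recovered sequencing chips by microscopy, with normalized cluster intensities fitted with a binding model.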
Sequence,apparent KD of K4 kissing-loop reporter (input ligand: FMN 200 uM),apparent KD of K4 kissing-loop reporter (input ligand: arginine 13.2 mM),apparent KD of K4 kissing-loop reporter (input ligand: none),apparent KD of K4 kissing-loop reporter [1],apparent KD of K4 kissing-loop reporter [2]
AAGGCACGGCUUCGGCCGUGCCAAAUAGAUACCAGCAUAAUAAUAUGCCCUUGGCAGCUAAAUAUAAAUUCAGUGAUGUUGGAUA [SS Theo A Tesla 2.2],573 nM,412 nM,604 nM,649 nM,546 nM
AAGGGCGGGACUUUCUCGCCGGAUAGAGAUACCAGCCCAGCAAUGGGCCCUUGGCAGCUCACUGACCUCAGUGAUGUUGAGGUUC [Quintege],310 nM,214 nM,213 nM,208 nM,185 nM
AAGUAAUGUAUAGAUUAUAUACAUUAAACAGAGGAUAUGCAUUAUUGCAGAAGGCUGAAUGCAGUGAUGUUGCAAUAAUUAUUUA [JR_SSFMNA_Sub002],53.1 nM,190 nM,184 nM,297 nM,146 nM
AAGUCAUAGGCAGGAUAUGCUUAGUAUUAAGGCCAUAUAUACGUAUAGAGUGAUGUUUUGUACCAGGCAGAAGGGCUACAUCCGU [FMN B Excl V5 (+2U)],755 nM,562 nM,699 nM,683 nM,541 nM
AAGUGAUGUUGUAGUGAUGUUGUGAUGUUGCAGGAUAUAUAGUGAUGUAGAAGGGUAAGUACUGUUUUUUUUUUUGAGUGAUGUU [ookooyzrmullin],101 nM,41.7 nM,78.4 nM,67.5 nM,88.7 nM
AAGUGAUGUUGUAGUGAUGUUGUGAUGUUGCAGGAUAUAUAGUGAUGUAGAAGGGUAUGUGCAGUUUUUUUUUUUGAGUGUUGAU [dpdmullin],76.6 nM,34.2 nM,59.9 nM,43.1 nM,61 nM
AAGUGUUCUAGUGAUACCAGACAUUUCUAUUACAUUAAUAUAGCUAAGUGAUGUUUAGCAGUCCCUUGGCAGCACUAUUUCACUA [JR_SSTheophyB_Sub015],167 nM,193 nM,174 nM,238 nM,191 nM
AAGUUUUAUAAACUCAUGGUUUCGUCAGAUACCAGCCUCGAGAGAGGCCCUUGGCAGCUGCAUGAGUGAUGUUCAUGUUCGAAGA [KL_XTheoA8],253 nM,260 nM,374 nM,239 nM,251 nM
AAUAAAAUCACGGCCGCCACUGAAUAAUUACAAAGUAGUGAUGUUACUUUACAUAUCUUAUUUAACAGGACCGGGUGAAUAUUUA [JR_ExcTryptoB_Sub007],78.6 nM,70.2 nM,76.2 nM,69.7 nM,78.3 nM
AAUAAAAUCACGGCCGCCACUGAUUAUUUUAUUAGGAGUGAUGUUCCUAUGACAAUAUACCUUAACAGGACCGGGUGAAUAUUUA [JR_ExcTryptoB_Sub010],87.8 nM,89.6 nM,86.1 nM,94.4 nM,80.8 nM
AAUAAGGAGUGAUGUUCCAAGUGAUGUUAACGAGGACCGGUACGGCCGCCACUCGAUACGGCCGGAAAGUAAGAUAAACUACAAU [Same State - Tryptophan A (Freestyle 3)],70.5 nM,51.3 nM,60.8 nM,55.9 nM,54.6 nM
AAUAUAGUGAUGUUAUAUAAGAAGGAGUUACGAGGACCGGUACGGCCGCCACUCGAAACGAGUGAAGAAGGAGGAAGGAGGAGGA [SSTRyptA.A],479 nM,300 nM,453 nM,409 nM,366 nM
AAUAUCUAGUAUAUAUUUAAUAAAACAGAUACCAGUGAUAAUAGACACCCUUGGCAGCUGGACGAGUGAUGUUCGUAUAUAUUAA [JR_SSTheophyA_Sub007],90.7 nM,153 nM,108 nM,184 nM,66.8 nM
AAUGCAUAGUGAAGGAGCGCGAUAAGCAGUGAUGUUGCUUAGCUAUUAUUCAUUUUUUUAACGCAGGUAGGUCGCACUUUGCAUA [JR_ExcArginiB_Sub016],166 nM,142 nM,135 nM,148 nM,144 nM
AAUGCAUUGUGAAGGAGCGCGUUAAGCAGUGAUGUUGCUUUUAUAUUUUUCAGUUUUAUAUCGCAGGUAGGUCGCACUUUGCAUA [JR_Nu_SSArginiB_Sub029],172 nM,158 nM,173 nM,192 nM,148 nM
AAUGUACAAGUGAUGUUUGUACUUUCCGAAGGAGCGUCUAAUAAGACAGGUAGGUCGCGGAUACUCUAAAUAAUCAGGUCAUUGA [#06 K4 Arginine A Exclusion],89.9 nM,89 nM,79.8 nM,80.6 nM,77.4 nM
AAUUUACAAUAAUCAUUUAAAGGAUCAGAAGGAGCGUGUUAUAACACAGGUAGGUCGCUGAGCGAGUGAUGUUCGCUAUAUACAA [JR_ExcArginiA_Sub002],76.3 nM,97.7 nM,90.8 nM,99.8 nM,64.5 nM
AAUUUACAUUAAUUAUUUAAAGGUUCAGAAGGAGCGUGAAUUAACACAGGUAGGUCGCUGAGCGAGUGAUGUUCGCUAUAUACUA [JR_ExcArginiA_Sub003],62.7 nM,68.9 nM,65.7 nM,91.1 nM,49.4 nM
AAUUUAUAUUUAUUCUUUAAAUGUUCAGAAGGAGCGUGAAUUAUCACAGGUAGGUCGCUGAGCUAGUGAUGUUGGCUAUAUACUA [whbob_Ex_Arginine_A_2t124],167 nM,219 nM,202 nM,217 nM,138 nM
ACAGUCGGCUGUGAUACCAGUCGUAUUACAACAUGUUGCAGUGAUGUUGCGAGAUAGGAUGACCCUUGGCAGCACUCAGUACGAC [Same State Theophylline B GF10],208 nM,135 nM,222 nM,252 nM,209 nM
ACAUUAGGCACGGCCGCCACUGGAUUAAGAUCUUAAGUAUUAAUUAACAUGAGUGAUGUUCAUGCCAGGACCGGGUGACUACCAU [KL-SSTryp-B11],275 nM,222 nM,261 nM,267 nM,252 nM
ACCACCAGCCGCACGAUACACGGGCAUUACCGAGGACCGGUACGGCCGCCACUCGCCCGCACGCUGGAUCGAGUGAUGUUCGAUC [theeternabot_sameState_KL_Trp_A_15],358 nM,334 nM,384 nM,371 nM,326 nM

Sequence,apparent KD of K4 kissing-loop reporter (input ligand: FMN 200 uM),apparent KD of K4 kissing-loop reporter (input ligand: arginine 13.2 mM),apparent KD of K4 kissing-loop reporter (input ligand: none),apparent KD of K4 kissing-loop reporter [1],apparent KD of K4 kissing-loop reporter [2]
ACCAUCAAAGAUGGCCUCGACACCGCUGAUACCAGAGUGAAAACACUCCCUUGGCAGCAGGUGAGUGAUGUUCACAGUCGAAGGA [Omel KL Theo A SS B v1],492 nM,464 nM,641 nM,538 nM,470 nM
ACGCGCGCGAGUGAUGUUCGGAGCGGCUGGCAGGAUAUGCCGCAAGGCAGAAGGGUCGUGGCGCGUCCAGGGUAACCUGGACGCG [#2 Exclusion - FMN A Attempt #28 (HarryS)],190 nM,401 nM,466 nM,391 nM,455 nM
ACGCGCGUGCGCUGGAAAGCGCACGCGCGUCGAGGACCGGUACGGCCGCCACUCGCUCGCGCCGAGUGAUGUUCGGCCGGCGAAC [#2 SameState - Tryptophan_A Attempt #2 (HarryS)],342 nM,288 nM,303 nM,292 nM,645 nM
ACGUCCGGGUUAAUCGUGGGCGUGGUGGAUACCAGUUCUUUAAUGAACCCUUGGCAGCCACAUGAGUGAUGUUCAUGUGCGAUGA [KL-XTheo-A10 #analogue],100 nM,102 nM,96.2 nM,98.2 nM,95.4 nM
ACGUGCACCAGUGAUGUUGGAAAAUAUGAAGGAGCGGGAGAAAGCCCAGGUAGGUCGCAUAAUAGCACGAGCCACGAAAGUGGCA,233 nM,145 nM,178 nM,141 nM,131 nM
ACGUGCACGAGUGAUGUUUGAAAAUCUGAAGGAGCGGGCGAAAGCCCAGGUAGGUCGCAGAAUAGCACGAGCCACGAAAGUGGCA,202 nM,272 nM,319 nM,142 nM,191 nM
ACUGGAAUUGUACUCCAGUGAUGUUGGAGGCAGGAUAUCCAGUAAAGGAGAAGGGCCAUCGCGCUAUUUAGCCGCAGGCGGCUAA [Atrilazaed],251 nM,130 nM,126 nM,136 nM,131 nM
AGAACUGUCUUGGAUACCAGUGAUGUUGGUAUCGAUGUGUGAGUGCAAAGCGUCCCAGAGUGCCCUUGGCAGCUAAGACUGUUCA [#16 K4 Theophylline B Exclusion],277 nM,230 nM,269 nM,261 nM,259 nM
AGACGUUUGGGAAGGAGCGGAAUGUAAUACGGAACGCGUGGAGGUGCAGUGAUGUUGCAGAUCCAGGUAGGUCGCCCAAGGGACG [Esenraerve],94.1 nM,122 nM,99.1 nM,137 nM,91.1 nM
AGACUACCACACUGUCAAUAGACAGUGAACUAGGAUAUGCUGAUAAGCAGAAGGAGUGAUGUUCCUAAUAAGGUAGUCAUAUAAU [FmnAX 15 #SwitchBubble #StaticStem #K4Early],590 nM,482 nM,558 nM,637 nM,503 nM
AGACUACCACACUGUCAAUAGACAGUGAGCUAGGAUAUGCUGAUAAGCAGAAGGAGUGAUGUUCCUAGGUAGUCAAUAAAAUAAU [FmnAX 13 G29],447 nM,462 nM,435 nM,645 nM,493 nM
AGACUACCACACUGUCAAUAGACAGUGUACUAGGAUAUGCUGAUAAGCAGAAGGAGUGAUGUUCCUAGGUAGUCAAUAAAAUAAU [FmnAX 13 U28],439 nM,443 nM,494 nM,629 nM,574 nM
AGACUACUGACAGGAUAUAACAUCCUAGUCGUAUACCGAAAGGUAUACGAUUCCCUUCUAGUGAUGUUAGAAGGGUCGGUAGUCA [Omei KL FMN B Exc B v13],151 nM,93.4 nM,103 nM,98.9 nM,101 nM
AGACUACUGACAGGAUAUGGCAUCCUGGUCGUAUACCGAAAGGUAUACGAUUUUCUUCUAGUGAUGUUAGAAGGGUCGGUAGUCA [Omei KL FMN B Exc B v15],128 nM,86.3 nM,97.3 nM,89.2 nM,92.7 nM
AGACUACUGAUAGGAUAUAACAUACUAGCUCGUAUACCAAAGGUAUACGAGCUCCUUCUAGUGAUGUUAGAAGGGUCGGUAGUCA [Omei KL FMN B Exc B v4],107 nM,101 nM,106 nM,99.6 nM,102 nM
AGACUUCACCGAAGGAGCGACGUAGCCUAGUGAUGUUAGGCACGAGAGAAAUCUCGUAUACGUCAGGUAGGUCGCGGUGAAGUCA [Omei KL Arginine B SS C v1],196 nM,138 nM,161 nM,171 nM,161 nM
AGAGUACGAAAGUACUCCUCUACACACUGCCGAGGACCGGUACGGCCGCCACUCGAGUUGAGUGAUGUUCGACAGUGUGUAGAGA [Omei KL Tryp A SS C v2],114 nM,56.2 nM,79 nM,132 nM,128 nM
AGAGUGAUGUUUUUUUGAAGUGAGUAAUGUCGAGGACCGGUACGGCCGCCACUCGAGUGAUGUUAGUGAUGUUGAUGUAGUGAUG [?lmullin],138 nM,61.3 nM,72.4 nM,137 nM,127 nM
AGAGUUAUGAGAGGAUAUGCGGCUAGUACUCAAAGAGUACUAGCAGCGGAGUGAUGUUCUGCGAAAGCAGAAGGUUCAUAACUCA [#08 K4 FMN B Same State],214 nM,622 nM,1710 nM,1110 nM,1050 nM
AGAUAGGGCUGAAGGAGCGUCGGAGAAGAGAAGAAGGAAUCCAGUGAUGUUGGAUAGAUCCGACAGGUAGGUCGCAGUUUUAUGA [hbob_SS_Arginine_B_2t139],125 nM,127 nM,133 nM,178 nM,124 nM
AGAUGGAAUAGAAGGAGCGGCGCCAGUGAUGUUGGAUGCCGCGGGUGAAUCAUGUCAUAGUGCCAGGUAGGUCGCUAUUUCAGCU [Beinveve],104 nM,98.1 nM,96.6 nM,103 nM,90.8 nM
